Literature values, collected in paper PMC3058932.

Key:
[1] = target: GRP receptor (Rattus norvegicus) (UniProt P52500); assay: rat brain membrane binding
[2] = target: GRP receptor (Homo sapiens) (UniProt P30550); assay: PC-3 membrane binding
Sequence of UniProt P30550 (P30550 whole entry): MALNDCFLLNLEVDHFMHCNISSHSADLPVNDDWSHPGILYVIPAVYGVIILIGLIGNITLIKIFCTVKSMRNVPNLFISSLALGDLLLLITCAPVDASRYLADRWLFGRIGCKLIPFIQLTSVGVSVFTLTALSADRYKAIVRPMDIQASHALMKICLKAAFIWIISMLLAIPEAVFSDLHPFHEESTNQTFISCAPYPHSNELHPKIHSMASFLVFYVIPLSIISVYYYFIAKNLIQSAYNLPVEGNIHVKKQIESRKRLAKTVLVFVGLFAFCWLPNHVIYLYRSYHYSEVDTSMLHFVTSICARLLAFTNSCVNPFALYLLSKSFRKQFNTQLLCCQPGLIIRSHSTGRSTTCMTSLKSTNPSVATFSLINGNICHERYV

Sequence of UniProt P52500 (P52500 whole entry): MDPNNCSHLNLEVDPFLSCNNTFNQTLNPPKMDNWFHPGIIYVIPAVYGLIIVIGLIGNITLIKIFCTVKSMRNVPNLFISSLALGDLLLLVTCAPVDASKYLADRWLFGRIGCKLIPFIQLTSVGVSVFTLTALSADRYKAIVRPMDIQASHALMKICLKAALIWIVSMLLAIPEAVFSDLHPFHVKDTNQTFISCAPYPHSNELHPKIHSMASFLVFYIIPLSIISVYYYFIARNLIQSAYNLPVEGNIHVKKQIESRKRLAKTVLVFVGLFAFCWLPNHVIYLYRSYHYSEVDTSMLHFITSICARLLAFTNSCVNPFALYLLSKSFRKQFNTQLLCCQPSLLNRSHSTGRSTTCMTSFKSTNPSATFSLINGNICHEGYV

Ki [1]: 4.3 nM
Ki [2]: 1.7 nM
Substance: bombesin (from UniProt P84214)
